Assays:
[1] = target: CD3 on the surface of human Jurkat T cells (Homo sapiens (Jurkat), UniProt P07766;P04234); assay: flow cytometry on cells
[2] = target: CD3 on the surface of cyno HSC-F T cells (Macaca fascicularis (HSC-F), UniProt Q95LI5;Q95LI8); assay: flow cytometry on cells
[3] = target: Human CD3 epsilon-delta (εδ) heterodimer, Fc fusion (Homo sapiens, UniProt P07766;P04234); assay: BLI
[4] = target: Cyno CD3εδ heterodimer, Fc fusion (Macaca fascicularis, UniProt Q95LI5;Q95LI8); assay: BLI
Chain of Cyno CD3εδ heterodimer, Fc fusion (Q95LI5 22-117, stated change not applied, chain 1 of 2): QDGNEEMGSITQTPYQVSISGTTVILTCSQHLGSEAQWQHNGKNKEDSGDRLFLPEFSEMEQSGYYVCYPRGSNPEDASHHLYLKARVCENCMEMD
Chain of Cyno CD3εδ heterodimer, Fc fusion (Q95LI8 22-100, stated change not applied, chain 2 of 2): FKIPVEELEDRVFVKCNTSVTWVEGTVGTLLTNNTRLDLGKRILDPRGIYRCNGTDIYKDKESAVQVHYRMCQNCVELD

Chain of CD3 on the surface of cyno HSC-F T cells (Q95LI5 22-198, one chain of several): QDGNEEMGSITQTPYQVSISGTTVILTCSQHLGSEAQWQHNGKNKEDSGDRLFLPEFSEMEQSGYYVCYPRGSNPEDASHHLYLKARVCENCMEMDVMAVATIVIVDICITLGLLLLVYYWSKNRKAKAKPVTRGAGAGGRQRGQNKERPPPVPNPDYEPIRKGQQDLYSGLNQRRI
Chain of Human CD3 epsilon-delta (εδ) heterodimer, Fc fusion (P07766 23-126, stated change not applied, chain 1 of 2): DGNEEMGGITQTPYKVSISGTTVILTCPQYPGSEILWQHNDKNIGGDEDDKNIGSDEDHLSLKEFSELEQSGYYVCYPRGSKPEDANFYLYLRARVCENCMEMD
Chain of Human CD3 epsilon-delta (εδ) heterodimer, Fc fusion (P04234 22-100, stated change not applied, chain 2 of 2): as the sequence (Q95LI8 22-100, stated change not applied, chain 2 of 2) above, with V5I, K15N, V20I, T32S, N33D, N34I, A64T, N74S counted along it
Chain of CD3 on the surface of human Jurkat T cells (P07766 23-207, one chain of several): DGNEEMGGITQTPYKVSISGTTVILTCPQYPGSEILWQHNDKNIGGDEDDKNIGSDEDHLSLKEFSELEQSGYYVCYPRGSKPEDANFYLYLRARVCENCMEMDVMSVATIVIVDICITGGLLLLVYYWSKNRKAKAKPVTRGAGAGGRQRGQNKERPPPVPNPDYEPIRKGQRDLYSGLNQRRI

binding result [1]	binding result [2]	binding result [3]	binding result [4]	Binder
binds	binds	binds	binds	ADI-26906 IgG1 variant L3-R94E (antibody, V domains shown) VH: QVQLVQSGAEVKKPGASVKVSCKASGFNIKDYYMHWVRQAPGQRLEWMGWIDLENANTIYDAKFQGRVTITRDTSASTAYMELSSLRSEDTAVYYCARDAYGRYFYDVWGQGTLVTVSS VL: DIVMTQSPDSLAVSLGERATINCKSSQSLLNARTGKNYLAWYQQKPGQPPKLLIYWASTRESGVPDRFSGSGSGTDFTLTISSLQAEDVAVYYCKQSYSERTFGGGTKVEIK
–	binds	–	binds	ADI-26906 IgG1 (antibody, V domains shown) VH: QVQLVQSGAEVKKPGASVKVSCKASGFNIKDYYMHWVRQAPGQRLEWMGWIDLENANTIYDAKFQGRVTITRDTSASTAYMELSSLRSEDTAVYYCARDAYGRYFYDVWGQGTLVTVSS VL: DIVMTQSPDSLAVSLGERATINCKSSQSLLNARTGKNYLAWYQQKPGQPPKLLIYWASTRESGVPDRFSGSGSGTDFTLTISSLQAEDVAVYYCKQSYSRRTFGGGTKVEIK
–	binds	–	–	ADI-26906 Fab (from CHO-produced IgG, papain digest) (Fab, V domains shown) VH: QVQLVQSGAEVKKPGASVKVSCKASGFNIKDYYMHWVRQAPGQRLEWMGWIDLENANTIYDAKFQGRVTITRDTSASTAYMELSSLRSEDTAVYYCARDAYGRYFYDVWGQGTLVTVSS VL: DIVMTQSPDSLAVSLGERATINCKSSQSLLNARTGKNYLAWYQQKPGQPPKLLIYWASTRESGVPDRFSGSGSGTDFTLTISSLQAEDVAVYYCKQSYSRRTFGGGTKVEIK

Reference: publication PMC10072072 (mAbs, 2023)
